Assay results as given in PMC10362054, “p53 restoration in small cell lung cancer identifies a latent cyclophilin-dependent necrosis mechanism” (Nature Communications, 2023).

Target: T1, Cyclophilin A (endogenous) (mouse (endogenous in mouse SCLC …, UniProt P17742 1-164))
T1 construct: cyclophilin A, encoded by Ppia, endogenous in cell lines derived from mouse SCLC tumors; also called CypA; PPIA; source: endogenous, mouse SCLC Type D (4711-18) and Type V (4716-10) cells, fixed cells
Test: proximity ligation; Duolink PLA on fixed Type D (4711-18) and Type V (4716-10) mouse SCLC cells treated with 4-OHT for 48 h; endogenous proteins; antibodies to p53 and to cyclophilin A, D or E
Conditions: partners not purified

T1 sequence (P17742 whole entry): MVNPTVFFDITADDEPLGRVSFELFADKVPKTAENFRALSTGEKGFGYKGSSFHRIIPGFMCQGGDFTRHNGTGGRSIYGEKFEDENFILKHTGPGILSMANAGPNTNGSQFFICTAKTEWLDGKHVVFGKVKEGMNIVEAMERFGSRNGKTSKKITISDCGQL

B1: p53 (endogenous, restored Trp53 allele) (natural protein, UniProt P02340 1-390, looked up)
chain: MTAMEESQSDISLELPLSQETFSGLWKLLPPEDILPSPHCMDDLLLPQDVEEFFEGPSEALRVSGAPAAQDPVTETPGPVAPAPATPWPLSSFVPSQKTYQGNYGFHLGFLQSGTAKSVMCTYSPPLNKLFCQLAKTCPVQLWVSATPPAGSRVRAMAIYKKSQHMTEVVRRCPHHERCSDGDGLAPPQHLIRVEGNLYPEYLEDRQTFRHSVVVPYEPPEAGSEYTTIHYKYMCNSSCMGGMNRRPILTIITLEDSSGNLLGRDSFEVRVCACPGRDRRTEEENFRKKEVLCPELPPGSAKRALPTCTSASPPQKKKPLDGEYFTLKIRGRKRFEMFRELNEALELKDAHATEESGDSRAHSSYLKTKKGQSTSRHKKTMVKKVGPDSD
notes: p53 expressed from the restored endogenous Trp53 allele (p53 R state) in cell lines derived from mouse SCLC tumors; source: endogenous, mouse SCLC Type D (4711-18) and Type V (4716-10) cells after 4-OHT, fixed cells
fold less PLA interaction in Type V cells than in Type D cells: ~10 fold
